{"source": "patent US20210292397A1", "about": "(LA TROBE UNIVERSITY, published 2021)", "binders": {"B1": {"name": "UpaB α-domain (α^UpaB) from UPEC strain CFT073 (other)", "chain": "TDSTVSTDPVTLNTEKTTLDQDVVINGDNKITAVTIETSDSDKDLNVTFGGHDITAASTVNQDFVEGVKVSGNKNVVINATDSTITAQGEGTYVRTAMVIDSTGDVVVNGGNFVAKNEKGSATGISLEATTGNNLTLNGTTINAQGNKSYSNGSTAIFAQKGNLLQGFDGDATDNITLADSNIINGGIETIVTAGNKTGIHTVNLNIKDGSVIGAANNKQTIYASASAQGAGSATQNLNLSVADSTIYSDVLALSESENSASTTTNVNMNVARSYWEGNAYTFNSGDKAGSDLDINLSDSSVWKGKVSGAGDASVSLQNGSVWNVTGSSTVDALAVKDSTVNITKATVNTGTFASQNGTLIVDASSENTLDISGKASGDLRVYSAGSLDLINEQTAFISTGKDSTLKATGTTEGGLYQYDLTQGADGNFYFVKNTHKASNASSVIQAMAAAPANVANLQADTL", "notes": "also called α^UPaB (native)"}, "B2": {"name": "TibA passenger domain (TibA^α) from the enterotoxigenic E. coli strain H10407 (other)", "chain": "YDNQTIGRGETSKSMHLSAGDTAKNTTINSGGKQYVSSGGSATSTTINIGGVQHVSSGGSATSSTINSGGHQHVSSGGSATNTTVNNGGRQTVFSGGSAMGTIINSGGDQYVISGGSATSASVTSGARQFVSSGGIVKATSVNSGGRQYVRDGGSATDTVLNNTGRQFVSSGGSAAKTTINSGGGMYLYGGSATGTSIYNGGRQYVSSGGSATNTTVYSGGRQHVYIDGNVTETTITSGGMLQVEAGGSASKVIQNSGGAVITNTSAAVSGTNDNGSFSIAGGSAVNMLLENGGYLTVFDGHQASDTMVGSDGTLDVRSGGVLYGTTTLTDKGALVGDVVTNEGNLYYLNNSTATFTGTLTGTGTLTQEGGNTRFSGLLSQDGGIFLQSGGAMTMDALQAKANVTTQSGTTLTLDNGTILTGNVAGDSTGAGDMAVKGASVWHLDGDSTVGALTLDNGTVDFRPSTTTRMTPAFQAVSLALGSLSGSGTFQMNTDIASHTGDMLNVAGNASGNFVLDIKNTGLEPVSAGAPLQVVQTGGGDAAFTLKGGKVDAGTWEYGLSKENTNWYLKADT"}, "B3": {"name": "Ag43a passenger domain (Ag43a^α) from UPEC strain CFT073 (other)", "chain": "ADIVVHPGETVNGGTLVNHDNQFVSGTANGVTVSTGLELGPDSDENTGGQWIKAGGTGRNTTVTANGRQIVQAGGTASDTVIRDGGGQSLNGLAVNTTLDNRGEQWVHGGGKAAGTIINQDGYQTIKHGGLATGTIVNTGAEGGPESENVSSGQMVGGTAESTTINKNGRQVIWSSGMARDTLIYAGGDQTVHGEAHNTRLEGGNQYVHNGGTATETLINRDGWQVIKEGGTAAHTTINQKGKLQVNAGGKASDVTQNTGGALVTSTAATVTGTNRLGAFSVVAGKADNVVLENGGRLDVLSGHTATNTRVDDGGTLDIRNGGAATTVSMGNGGVLLADSGAAVSGTRSDGKAFSIGGGQADALMLEKGSSFTLNAGDTATDTTVNGGLFTARGGTLAGTTTLNNGAILTLSGKTVNNDTLTIREGDALLQGGSLTGNGSVEKSGSGTLTVSNTTLTQKAVNLNEGTLTLNDSTVTTDVIAQRGTALKLTGSTVLNGAID", "notes": "also called Ag43^α; α^43a"}, "B4": {"name": "Ag43 passenger domain (Ag43^α) from E. coli strain EDL933 (other)", "chain": "ADKVVQAGETVNDGTLTNHDNQIVFGTANGMTISTGLELGPDSEENTGGQWIQNGGIAGNTTVTTNGRQVVLEGGTASDTVIRDGGGQSLNGLAVNTTLNNRGEQWVHEGGVATGTIINRDGYQSVKSGGLATGTIINTGAEGGPDSDNSYTGQKVQGTAESTTINKNGRQIILFSGLARDTLIYAGGDQSVHGRALNTTLNGGYQYVHRDGLALNTVINEGGWQVVKAGGAAGNTTINQNGELRVHAGGEATAVTQNTGGALVTSTAATVIGTNRLGNFTVENGKADGVVLESGGRLDVLESHSAQNTLVDDGGTLAVSAGGKATSVTITSGGALIADSGATVEGTNASGKFSIDGTSGQASGLLLENGGSFTVNAGGQAGNTTVGHRGTLTLAAGGSLSGRTQLSKGASMVLNGDVVSTGDIVNAGEIRFDNQTTPNAALSRAVAKSNSPVTFHKLTTTNLTGQGGTINMRVRLDGSNASDQLVINGGQATGKTWLAFTNVGNSNLGVATTGQGIRVVDAQNGATTEEGAFALSRPLQAGAFNYTLNRDSDE"}, "B5": {"name": "Ag43 passenger domain (Ag43^α) from UPEC strain UTI189 (other)", "chain": "ADTVVQAGETVNGGTLTNHDNQIVLGTANGMTISTGLEYGPDNEANTGGQWIQNGGIANNTTVTGGGLQRVNAGGSVSDTVISAGGGQSLQGQAVNTTLNGGEQWVHEGGIATGTVINEKGWQAVKSGAMATDTVVNTGAEGGPDAENGDTGQTVYGDAVRTTINKNGRQIVAAEGTANTTVVYAGGDQTVHGHALDTTLNGGYQYVHNGGTASDTVVNSDGWQIIKEGGLADFTTVNQKGKLQVNAGGTATNVTLTQGGALVTSTAATVTGSNRLGNFTVENGNADGVVLESGGRLDVLEGHSAWKTLVDDGGTLAVSAGGKATDVTMTSGGALIADSGATVEGTNASGKFSIDGISGQASGLLLENGGSFTVNAGGLASNTTVGHRGTLTLAAGGSLSGRTQLSKGASMVLNGDVVSTGDIVNAGEIRFDNQTTPDAALSRAVAKGDSPVTFHKLTTSNLTGQGGTINMRVRLDGSNASDQLVINGGQATGKTWLAFTNVGNSNLGVATSGQGIRVVDAQNGATTEEGAFALSRPLQAGAFNYTLNRDSDE"}, "B6": {"name": "Ag43b passenger domain (Ag43b^α) from uropathogenic E. coli strain CFT073 (other)", "chain": "ADSVVPAGETVNGGTLINHDRQFVSGTADGMTVSTGLELGADSDNNTGGQQIARGGTARNTRVTANGLQDVMAGGSTSDTVISTGGGQNLRGKASGTVLNGGDQWIHAGGRASGTVINQDGYQTIKHGGLVTGTIVNTGAEGGPDSENVSTGQMVGGIAESTTINKNGRQVIWSSGIARDTLIYTGGDQTVHGEAHNTRLEGGNQYVHKYGLALNTVINEGGWQVVKAGGTAGNTTINQNGELRVHAGGEASDVTQNTGGALVTSTAATVTGTNRLGAFSVVEGKADNVVLENGGRLDVLSGHTATRTLVDDGGTLDVRNGGTATAVSMGNGGVLLADSGAAVSGTRSDGTAFRIGGGQADALMLEKGSSFTLNAGDTATDTTVNGGLFTARGGSLAGTTTLNNGATFTLAGKTVNNDTLTIREGDALLQGGALTGNGRVEKSGSGTLTVSNTTLTQKAVNLNEGTLTLNDSTVTTDIIAHRGTALKLTGSTVLNGAIDPTNVTLTSGATWNIPDNATVQSVVDDLSHAGQIHFTSARTGKFVPTTLQVKNLNGQNGTISLRVRPDMAQNNADRLVIDGGRATGKTILNLVNAGNSGTGLATTGKGIQVVEAINGATTEEGAFVQGNMLQAGAFNYTLNRDSDESWYLRSEE", "notes": "also called Ag43bCFT073^α"}, "B7": {"name": "Fab10C12 (Fab, V domains shown)", "VH": "QVQLQQPGTELVKPGASVKLSCKASGYTFTNYWMHWVKQRPGQGLEWIGNIGPSSGNTNYNENFKTKATLTVDKSSSTAYMQLSSLTSEDSAVYFCARWGSIRAMDYWGQGTSVTVSS", "VL": "SIVMTQTPKFLFVSVGDRVTITCKASQSVNNDVAWYQQKPGQSPKLLIYFASNRYTGVPDRFTGSGYGTDFTFTINTVQAEDLAVYFCQQDYSSPQTFGGGTKLEVTR"}}, "key": {"[1]": {"target": "human fibronectin (human, UniProt P02751 32-2477)", "sequence (P02751 32-2477 limits assumed)": "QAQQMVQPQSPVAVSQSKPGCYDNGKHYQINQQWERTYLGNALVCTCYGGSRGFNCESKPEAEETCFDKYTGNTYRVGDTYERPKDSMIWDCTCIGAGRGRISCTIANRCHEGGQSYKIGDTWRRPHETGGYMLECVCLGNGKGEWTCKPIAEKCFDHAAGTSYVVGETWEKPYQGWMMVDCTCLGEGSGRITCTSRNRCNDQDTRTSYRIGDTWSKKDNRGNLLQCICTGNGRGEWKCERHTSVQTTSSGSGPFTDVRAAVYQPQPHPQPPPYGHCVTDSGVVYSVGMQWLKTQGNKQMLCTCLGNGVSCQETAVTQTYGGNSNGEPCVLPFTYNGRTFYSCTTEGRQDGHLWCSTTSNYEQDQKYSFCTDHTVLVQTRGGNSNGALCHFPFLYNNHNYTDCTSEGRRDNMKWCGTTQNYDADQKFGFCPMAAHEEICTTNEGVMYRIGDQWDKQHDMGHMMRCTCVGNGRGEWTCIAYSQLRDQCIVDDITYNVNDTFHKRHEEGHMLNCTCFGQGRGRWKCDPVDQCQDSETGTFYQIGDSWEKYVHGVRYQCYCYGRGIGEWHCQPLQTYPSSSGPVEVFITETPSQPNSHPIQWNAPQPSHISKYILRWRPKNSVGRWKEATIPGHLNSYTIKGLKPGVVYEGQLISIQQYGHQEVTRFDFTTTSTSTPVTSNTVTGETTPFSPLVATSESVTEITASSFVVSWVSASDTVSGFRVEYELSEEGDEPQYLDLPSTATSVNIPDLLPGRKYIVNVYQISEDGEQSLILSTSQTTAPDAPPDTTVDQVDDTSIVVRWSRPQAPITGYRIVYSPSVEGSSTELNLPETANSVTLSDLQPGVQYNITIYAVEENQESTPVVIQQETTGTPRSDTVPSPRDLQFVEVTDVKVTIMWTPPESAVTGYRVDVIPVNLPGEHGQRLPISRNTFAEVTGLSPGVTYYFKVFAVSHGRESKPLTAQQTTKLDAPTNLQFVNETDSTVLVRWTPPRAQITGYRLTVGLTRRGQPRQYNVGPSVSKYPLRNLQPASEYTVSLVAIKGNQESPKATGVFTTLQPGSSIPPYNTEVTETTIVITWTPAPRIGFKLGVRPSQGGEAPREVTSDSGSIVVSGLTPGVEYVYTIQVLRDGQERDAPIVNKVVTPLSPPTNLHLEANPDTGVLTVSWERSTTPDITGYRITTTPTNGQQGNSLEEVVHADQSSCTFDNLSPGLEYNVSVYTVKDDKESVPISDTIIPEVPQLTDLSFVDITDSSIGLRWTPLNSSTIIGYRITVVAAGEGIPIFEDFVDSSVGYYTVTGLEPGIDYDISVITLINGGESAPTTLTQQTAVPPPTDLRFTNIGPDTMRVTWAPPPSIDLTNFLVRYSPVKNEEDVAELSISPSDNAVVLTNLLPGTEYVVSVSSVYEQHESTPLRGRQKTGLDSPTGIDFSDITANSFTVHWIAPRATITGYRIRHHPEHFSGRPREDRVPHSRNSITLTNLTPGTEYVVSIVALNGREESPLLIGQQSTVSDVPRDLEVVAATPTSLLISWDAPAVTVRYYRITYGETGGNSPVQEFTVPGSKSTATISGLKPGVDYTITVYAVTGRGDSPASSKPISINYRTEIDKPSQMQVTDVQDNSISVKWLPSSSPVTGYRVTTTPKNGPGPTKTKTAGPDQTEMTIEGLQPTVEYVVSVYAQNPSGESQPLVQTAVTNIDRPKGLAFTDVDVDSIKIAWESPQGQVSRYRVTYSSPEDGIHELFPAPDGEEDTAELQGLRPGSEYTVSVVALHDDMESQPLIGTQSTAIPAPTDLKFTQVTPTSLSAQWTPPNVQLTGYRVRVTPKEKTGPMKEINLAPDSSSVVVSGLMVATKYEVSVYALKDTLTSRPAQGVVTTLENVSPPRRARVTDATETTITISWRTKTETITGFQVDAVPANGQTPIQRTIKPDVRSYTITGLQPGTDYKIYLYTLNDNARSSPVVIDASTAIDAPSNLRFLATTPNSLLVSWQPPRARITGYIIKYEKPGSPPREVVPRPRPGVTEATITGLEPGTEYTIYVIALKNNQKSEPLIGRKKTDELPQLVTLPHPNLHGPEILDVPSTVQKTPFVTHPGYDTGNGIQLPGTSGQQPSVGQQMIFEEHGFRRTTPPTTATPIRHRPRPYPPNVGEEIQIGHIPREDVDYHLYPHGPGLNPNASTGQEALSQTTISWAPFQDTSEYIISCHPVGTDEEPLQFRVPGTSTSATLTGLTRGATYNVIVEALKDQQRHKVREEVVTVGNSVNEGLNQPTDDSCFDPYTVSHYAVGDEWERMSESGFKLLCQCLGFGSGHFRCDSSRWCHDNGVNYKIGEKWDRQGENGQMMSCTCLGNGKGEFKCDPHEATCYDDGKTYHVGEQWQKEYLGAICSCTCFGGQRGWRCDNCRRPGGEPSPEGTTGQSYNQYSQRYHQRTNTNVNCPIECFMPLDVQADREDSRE"}, "[2]": {"target": "T1, Fibrinogen", "T1 construct": "also called human fibrinogen", "T1 alpha": "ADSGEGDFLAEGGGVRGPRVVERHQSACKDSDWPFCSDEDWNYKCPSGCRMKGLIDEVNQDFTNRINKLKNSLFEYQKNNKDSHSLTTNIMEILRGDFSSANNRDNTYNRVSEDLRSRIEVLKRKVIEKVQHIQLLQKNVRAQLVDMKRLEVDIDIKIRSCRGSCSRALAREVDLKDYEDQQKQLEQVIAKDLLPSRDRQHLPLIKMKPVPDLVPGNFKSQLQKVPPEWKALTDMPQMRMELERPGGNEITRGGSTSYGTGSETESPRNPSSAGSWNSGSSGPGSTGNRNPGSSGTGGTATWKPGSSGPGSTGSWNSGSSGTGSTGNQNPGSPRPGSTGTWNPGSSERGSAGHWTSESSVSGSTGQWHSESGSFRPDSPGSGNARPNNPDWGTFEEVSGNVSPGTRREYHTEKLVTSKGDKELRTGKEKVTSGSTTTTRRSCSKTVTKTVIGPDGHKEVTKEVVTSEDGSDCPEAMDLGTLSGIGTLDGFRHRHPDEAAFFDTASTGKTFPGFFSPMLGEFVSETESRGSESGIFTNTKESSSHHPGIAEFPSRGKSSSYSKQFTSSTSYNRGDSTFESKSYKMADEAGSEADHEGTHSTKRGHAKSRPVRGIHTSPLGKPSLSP", "T1 beta": "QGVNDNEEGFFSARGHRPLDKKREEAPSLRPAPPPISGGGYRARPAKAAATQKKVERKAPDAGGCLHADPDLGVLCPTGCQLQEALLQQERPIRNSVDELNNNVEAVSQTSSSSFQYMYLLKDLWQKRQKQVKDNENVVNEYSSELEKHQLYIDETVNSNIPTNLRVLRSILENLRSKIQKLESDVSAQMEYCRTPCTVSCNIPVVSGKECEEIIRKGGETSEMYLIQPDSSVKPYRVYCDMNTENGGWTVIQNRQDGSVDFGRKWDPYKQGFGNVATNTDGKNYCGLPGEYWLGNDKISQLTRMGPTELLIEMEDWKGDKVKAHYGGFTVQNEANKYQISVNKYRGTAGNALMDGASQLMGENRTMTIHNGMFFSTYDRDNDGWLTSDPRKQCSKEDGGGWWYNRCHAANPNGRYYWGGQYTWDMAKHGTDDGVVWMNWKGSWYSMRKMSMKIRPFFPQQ", "T1 gamma": "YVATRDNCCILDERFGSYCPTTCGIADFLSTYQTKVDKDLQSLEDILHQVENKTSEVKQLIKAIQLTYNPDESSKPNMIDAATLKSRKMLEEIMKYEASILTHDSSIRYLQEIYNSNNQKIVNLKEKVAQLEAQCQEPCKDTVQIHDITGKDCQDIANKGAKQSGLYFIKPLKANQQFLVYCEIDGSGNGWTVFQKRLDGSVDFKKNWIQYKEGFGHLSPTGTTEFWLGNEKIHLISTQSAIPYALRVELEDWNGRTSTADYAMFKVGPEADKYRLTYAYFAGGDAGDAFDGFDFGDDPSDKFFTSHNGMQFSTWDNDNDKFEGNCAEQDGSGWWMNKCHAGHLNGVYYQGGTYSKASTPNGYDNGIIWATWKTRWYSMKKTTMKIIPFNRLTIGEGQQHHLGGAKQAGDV", "experiment": "ELISA, absorbance at 405 nm, n=9, PBS as control"}, "[3]": {"target": "the molecule itself", "experiment": "crystal structure (FIG. 12D)"}, "[4]": {"target": "the molecule itself", "experiment": "crystal structure (FIG. 1B)"}, "[5]": {"target": "the molecule itself", "experiment": "crystal structure (FIG. 12A)"}, "[6]": {"target": "the molecule itself", "experiment": "crystal structure (FIG. 12B)"}, "[7]": {"target": "the molecule itself", "experiment": "crystal structure (FIG. 12C)"}, "[8]": {"target": "B3"}}, "data": [{"binder": "B1", "values": [{"measurement": "Kd", "setting": "[1]", "value": 45.2, "unit": "µM"}, {"measurement": "binding result", "setting": "[2]", "value": "no binding"}]}, {"binder": "B2", "values": [{"measurement": "binding result", "setting": "[3]", "value": "binds"}]}, {"binder": "B3", "values": [{"measurement": "binding result", "setting": "[4]", "value": "binds"}]}, {"binder": "B4", "values": [{"measurement": "binding result", "setting": "[5]", "value": "binds"}]}, {"binder": "B5", "values": [{"measurement": "binding result", "setting": "[6]", "value": "binds"}]}, {"binder": "B6", "values": [{"measurement": "binding result", "setting": "[7]", "value": "binds"}]}, {"binder": "B7", "values": [{"measurement": "Kd", "setting": "[8]", "value": 0.00728, "unit": "µM"}]}]}
